Assay results from patent publication US20140134132A1.

Target: organic anion transporting polypeptide 1B1 (UniProt Q9Y6L6)
Assay: cell-based or functional assay

Sequence of organic anion transporting polypeptide 1B1 (Q9Y6L6 whole entry): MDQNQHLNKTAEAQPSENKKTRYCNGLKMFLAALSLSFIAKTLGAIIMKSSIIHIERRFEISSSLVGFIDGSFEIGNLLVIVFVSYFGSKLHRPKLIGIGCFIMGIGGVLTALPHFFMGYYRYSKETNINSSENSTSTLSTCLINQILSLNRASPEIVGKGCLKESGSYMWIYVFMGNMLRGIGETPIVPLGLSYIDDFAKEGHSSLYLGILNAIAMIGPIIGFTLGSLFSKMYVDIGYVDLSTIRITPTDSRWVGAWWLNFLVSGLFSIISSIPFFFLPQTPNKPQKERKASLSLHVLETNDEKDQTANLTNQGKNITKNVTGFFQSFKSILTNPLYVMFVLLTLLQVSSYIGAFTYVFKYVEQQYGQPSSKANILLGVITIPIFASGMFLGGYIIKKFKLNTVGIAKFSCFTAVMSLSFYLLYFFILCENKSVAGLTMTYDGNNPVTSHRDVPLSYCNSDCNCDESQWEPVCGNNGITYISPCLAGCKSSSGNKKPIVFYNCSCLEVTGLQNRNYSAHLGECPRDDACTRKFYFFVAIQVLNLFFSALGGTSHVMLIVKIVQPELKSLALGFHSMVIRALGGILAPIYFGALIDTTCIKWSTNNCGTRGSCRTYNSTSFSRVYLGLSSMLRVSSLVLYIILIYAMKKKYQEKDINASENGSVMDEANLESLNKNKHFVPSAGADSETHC

3-[D-Ala]-4[(2S,3S)-2-Amino-4-[4-(2-methoxy-ethyl)-piperazin-1-yl]-3-methyl-butanoyl]-cyclosporin (peptide)
OATP1B13 IC50: 3200 nM

3-[D-Ala]-4-[(2S,3R)-4-((2-methoxyethyl)(methyl)amino)-3-methyl-2-(methylamino)butanoyl]-cyclosporin (peptide)
OATP1B13 IC50: 1900 nM

3-[D-Ala]-4-[(2S,3S)-4-(2-(4-isopropylpiperazin-1-yl)-2-oxoethoxy)-3-methyl-2-(methylamino)butanoyl]-cyclosporin (peptide)
OATP1B13 IC50: 8000 nM

3-[D-Ala]-4-[(2S,3R)-5-(4-cyclobutylpiperazin-1-yl)-3-methyl-2-(methylamino)pentanoyl]-cyclosporin (peptide)
OATP1B13 IC50: 2100 nM

3-[D-Ala]-4-[(2S,3S)-3-methyl-2-(methylamino)-4-((morpholine-4-carbonyl)oxy)butanoyl]-cyclosporin (peptide)
OATP1B13 IC50: 2300 nM

3-[D-Ala]-4-[(2S,3R)-4-(8-oxa-3-azabicyclo[3.2.1]octan-3-yl)-3-methyl-2-(methylamino)butanoyl]-cyclosporin (peptide)
OATP1B13 IC50: 1700 nM

3-[D-Ala]-4-[(2S,3R)-3-methyl-2-(methylamino)-4-(4-(methylsulfonyl)piperidin-1-yl)butanoyl]-cyclosporin (peptide)
OATP1B13 IC50: 1800 nM

3-[D-Ala]-4-[(2S,3R)-6-hydroxy-3,6-dimethyl-2-(methylamino)heptanoyl]-cyclosporin (peptide)
OATP1B13 IC50: 2200 nM

3-[D-Ala]-4-[(2S,3S)-3-methyl-2-(methylamino)-4-(((S)-tetrahydrofuran-3-yl)oxy)butanoyl]-cyclobsporin (peptide)
OATP1B13 IC50: 1900 nM

3-[D-Ala]-4-[(2S,3R)-3-methyl-2-(methylamino)-4-(2-oxa-6-azaspiro[3.3]heptan-6-yl)butanoyl]-cyclosporin (peptide)
OATP1B13 IC50: 3400 nM

3-[D-Ala]-4-[(2S,3S)-3-methyl-2-(methylamino)-4-((S)-3-oxotetrahydro-1H-oxazolo[3,4-a]pyrazin-7(3H)-yl)butanoyl]-cyclosporin (peptide)
OATP1B13 IC50: 1400 nM

3-[D-Ala]-4-[(2S,3S)-4-(2-(4-isopropylpiperazin-1-yl)ethoxy)-3-methyl-2-(methylamino)butanoyl]-cyclosporin (peptide)
OATP1B13 IC50: 4400 nM

3-[(R)-3-methyl-2-(methylamino)butanoyl]-4-[(2S,3S)-4-methoxy-3-methyl-2-(methylamino)butanoyl]-cyclosporin (peptide)
OATP1B13 IC50: 2000 nM

3-[D-Ala]-4-[(2S,3S)-4-((4-ethylpiperazine-1-carbonyl)oxy)-3-methyl-2-(methylamino)butanoyl]-cyclosporin (peptide)
OATP1B13 IC50: 1900 nM

3-[D-Ala]-4-[(2S,3R)-5-(3-methoxyazetidin-1-yl)-3-methyl-2-(methylamino)pentanoyl]-cyclosporin (peptide)
OATP1B13 IC50: 1400 nM

3-[D-Ala]-4-[(2S,3R)-4-(4-acetylpiperazin-1-yl)-3-methyl-2-(methylamino)butanoyl]-cyclosporin (peptide)
OATP1B13 IC50: 2300 nM

3-[D-Ala]-4-[(2S,3R)-3-methyl-2-(methylamino)-6-(4-methylpiperazin-1-yl)-6-oxohexanoyl]-cyclosporin (peptide)
OATP1B13 IC50: 5400 nM

3-[D-Ala]-4[(2S,3S)-2-Amino-4-(4-cyclobutyl-piperazin-1-yl)-3-methyl-butanoyl]-cyclosporin (peptide)
OATP1B13 IC50: 4000 nM

1-dihydro-3-[D-Ala]-4[(2S,3S)-2-Amino-4-[4-(2-methoxy-ethyl)-piperazin-1-yl]-3-methyl-butanoyl]-cyclosporin (peptide)
OATP1B13 IC50: 3300 nM

3-[(R)-2-(methylamino)butanoic acid]-4-[(2S,3S)-4-methoxy-3-methyl-2-(methylamino)butanoyl]-cyclosporin (peptide)
OATP1B13 IC50: 2100 nM

3-[D-Ala]-4-[(2S,3R)-3-methyl-2-(methylamino)-6-morpholino-6-oxohexanoyl]-cyclosporin (peptide)
OATP1B13 IC50: 4800 nM

3-[D-Ala]-4-[(2S,3R)-4-((4-ethylpiperazine-1-carbonyl)oxy)-3-methyl-2-(methylamino)butanoyl]-cyclosporin (peptide)
OATP1B13 IC50: 2200 nM

3-[D-Ala]-4-[(2S,3S)-4-(2-(4-cyclohexylpiperazin-1-yl)-2-oxoethoxy)-3-methyl-2-(methylamino)butanoyl]-cyclosporin (peptide)
OATP1B13 IC50: 3500 nM

3-[D-Ala]-4-[(2S,3R)-6-(4-methoxypiperidin-1-yl)-3-methyl-2-(methylamino)hexanoyl]-cyclosporin (peptide)
OATP1B13 IC50: 4300 nM

3-[D-Ala]-4-[(2S,3R)-4-(4-cyanopiperidin-1-yl)-3-methyl-2-(methylamino)butanoyl]-cyclosporin (peptide)
OATP1B13 IC50: 1900 nM

3-[D-Ala]-4-[(2S,3R)-5-(4-(2-methoxyethyl)piperazin-1-yl)-3-methyl-2-(methylamino)pentanoyl]-cyclosporin (peptide)
OATP1B13 IC50: 9100 nM

3-[D-Ala]-4-[(2S,3R)-4-(3,3-difluoropyrrolidin-1-yl)-3-methyl-2-(methylamino)butanoyl]-cyclosporin (peptide)
OATP1B13 IC50: 1400 nM

3-[D-Ala]-4-[(2S,3R)-3-methyl-2-(methylamino)-6-((4-methylpiperazine-1-carbonyl)oxy)hexanoyl]-cyclosporin (peptide)
OATP1B13 IC50: 2900 nM

3-[D-Ala]-4-[(2S,3R)-3-methyl-4-(methyl(pyridin-3-ylmethyl)amino)-2-(methylamino)butanoyl]-cyclosporin (peptide)
OATP1B13 IC50: 1000 nM

3-[D-Ala]-4-[(2S,3R)-6-(8-oxa-3-azabicyclo[3.2.1]octan-3-yl)-3-methyl-2-(methylamino)-6-oxohexanoyl]-cyclosporin (peptide)
OATP1B13 IC50: 1900 nM

3-[D-Ala]-4-[(2S,3S)-3-methyl-2-(methylamino)-4-(2-(4-methylpiperazin-1-yl)-2-oxoethoxy)butanoyl]-cyclosporin (peptide)
OATP1B13 IC50: 9400 nM

3-[D-Ala]-4-[(2S,3S)-4-(2-((2R,5R)-2,5-dimethylmorpholino)ethoxy)-3-methyl-2-(methylamino)butanoyl]-cyclosporin (peptide)
OATP1B13 IC50: 3600 nM

3-[D-Ala]-4-[(2S,3R)-4-(4-(ethoxycarbonyl)piperazin-1-yl)-3-methyl-2-(methylamino)butanoyl]-cyclosporin (peptide)
OATP1B13 IC50: 2100 nM

3-[D-Ala]-4[(2S,3S)-2-Amino-3-methyl-4-(4-oxetan-3-yl-piperazin-1-yl)-butanoyl]-cyclosporin (peptide)
OATP1B13 IC50: 1800 nM

3-[D-Ala]-4[(2S,3R)-2-Amino-3-methyl-4-(4-oxetan-3-yl-piperazin-1-yl)]-butanoyl]-cyclosporin (peptide)
OATP1B13 IC50: 1170 nM

3-[D-Ala]-4-[(2S,3R)-6-(4-ethylpiperazin-1-yl)-3-methyl-2-(methylamino)hexanoyl]-cyclosporin (peptide)
OATP1B13 IC50: 2600 nM

3-[D-Ala]-4-[(2S,3R)-4-(3-methoxyazetidin-1-yl)-3-methyl-2-(methylamino)butanoyl]-cyclosporin (peptide)
OATP1B13 IC50: 4200 nM

3-[D-Ala]-4-[(2S,3R)-3-methyl-2-(methylamino)-5-morpholinopentanoyl]-cyclosporin (peptide)
OATP1B13 IC50: 3900 nM
